From the nanobody polyreactivity screen of Harvey et al. (2022)

Assay: yeast display, Sf9 membrane polyspecificity reagent, FACS + sequencing; frameworks hold sequencing errors
Method in brief: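 In a synthetic yeast display library (Saccharomyces cerevisiae BJ5465), nanobody expression was induced with galactose for 36–48 hours. FACS gates were set low and high (top ~1%) using anti-HA fluorescence for expression and streptavidin fluorescence for binding of the Sf9 membrane reagent. Each polyreactivity label is drawn from the gate of origin.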

## QVQLVESGGGLVQAGGSLRLSCAASGLTVLQNAMGWYRQAPGKEWELVAAINIGTNTYADSVKGRFTSARDNAKNTVYLQMNSLKPEDTAVYYCATVDTVLVRPVGYDYWGQGTQVTVSS
  polyreactivity (PSR sort gate): low polyreactivity

## QVQLVESGGGLVQAGGSLRLSCAASGFIFGTYVMGLYRTAPGKERELLAAISESGGRTYYADSVKGRFTISRDNAKNTVYIQMNSLIPEDTAVYYCAKVRHIRFHYYYGYQSYYYWGQGTQVTVSS
  polyreactivity (PSR sort gate): high polyreactivity

## QVQLVESGGGLVQAGGSLRLSCAASGSIFRVYAMGWYRQAPGKERELVAAISRGGGTTYYADSVKGRFTISRDNAKNTVYLQMNRLKPEDTAVYYCASEYLGYYYQFDSWGQGTQVTVSS
  polyreactivity (PSR sort gate): high polyreactivity

## QVQLVESGGGLVQAGGSLRLSCAASGSILNIYTMGWYRQAPGTERELVAAITSGDITYYADSVKGLFTISRDNAKNTVYLQMISLKPEDTAVYYCAADASSQINEWLSYGEGYNYWGQGTQVTVSS
  polyreactivity (PSR sort gate): low polyreactivity

## QVQLVESGGGLVQAGGSLRLSCAASGMVWYRQAPGKERELVAAITSGDSTNYADSVKGRFTISRDNAKNTVYLQMNCLKPEDTSVYYCAADPDYLYAYFYWGQGTQVSVSS
  polyreactivity (PSR sort gate): low polyreactivity

## QVQLVESGGGLVQAGGSLRLICAASGSTSYVYAMGWYRQAPGKERELVAAISGSGGRTYYADSVKGRFTISRDNAKNTVYLQMNSLKPEDTAVYYCNALPRPSYPFEYWGQGTQVTVSS
  polyreactivity (PSR sort gate): high polyreactivity

## QVQIVESGGGLVQAGGSLRLRCAASGRIFAYYAMGWYRQAPGKERELVAAISRSGVSTYYADSVKGRFTISRDNAKNTVYLQMNSLKPEDTAVYYCAARWRSGFTSGDYWGQGTQVTVSS
  polyreactivity (PSR sort gate): low polyreactivity

## QVQLVESGGGLVQAGGSLRLSCAASGSIFLDYAMGWYRQAPGKERELVAGITISGGSTYYADSVKGRFTISRDNAKNTVYLQMNSLKPEDTAVYYCAKVAPRSSSSQEYYYWGQGTQVTVSS
  polyreactivity (PSR sort gate): low polyreactivity

## QVQLVESGGGLDQAGGSLRLICAASGRTFRFNTMGWYRQAPGKERELVATISRRGGSTYYADSVKGRFTISRDNAKNTVYLLMNSLKPEDTAVYYCAVYGGSYRFDYWGQGTQVTVSS
  polyreactivity (PSR sort gate): high polyreactivity

## QVQLVESGGGLVQAGGSLRLSCAASGRIFFLYAMGWYRQAPGKERELVAAITWSADGTYYADSVKGRFTISRDNAKNTVYLQMNSLKPEDTAVYYCNADAYTTASSYNWWYYYWGQGTQVTVSS
  polyreactivity (PSR sort gate): low polyreactivity

## QVQLVESGGGLVQAGGSLRLSCAASGFTFIYNAMGWYRQAPGKERELVAAISYRTSRTYYADSVKGRFTISRDNAKNTVYLQMNSLKPEDTAVYYCAKGYGRHGLDYWGQGTQVTVSS
  polyreactivity (PSR sort gate): high polyreactivity

## QVQLVESGGGLVQAGGSLRLSCAASGFTFEWYTMRCYRQAPGKERELVADISGDGSTYYADSVKGRFTISRDNAKNTVYLQMNSLKPEDTAVYYCAARTRRYHRPGLSPGNYWGQGTQVTVSS
  polyreactivity (PSR sort gate): high polyreactivity

## QVQLVESGRGLVQAGGSLRLSCAASGITFWYYAMGWYRQAPGKERELVASINRSGGSTYADSVKGRFTISRDNAKITVYLQMNSLKPEDTAVYYCAARLYSSVVRYRYGYWGQGTQVTVSS
  polyreactivity (PSR sort gate): high polyreactivity

## QDQLVESGGGLVQAGGSLRLSCAASGSIFGSYAMGWYRQAPGKEMELVAAISYSGASTYYADSVKGRFTISRDNAKNTVYLQMNSLKPEDTAVYYCNKDPRWRRFNYWGQGTQVTVSS
  polyreactivity (PSR sort gate): high polyreactivity

## QVQLVESGGGLVQAGGSLRLSCAASGRIFRLYAMGWYRQAPGKERELVAAISKSGGSTYYADSVKGRFTISRDNAKYTVYLQMNSLNPEDTAVYYCAADYRTHGGYVGTFDYWGQGTQVTVSS
  polyreactivity (PSR sort gate): low polyreactivity

## QVQLVESGGGLVQAGGSLRLSCAASGSIFYGYVMGWYRQARGKERELVAAITRSGSTYYADSVKGRFTISRDNAKNTVYLQMNSLKPEDTAVYYCAAAAKRKYYWGQGNQVTVSS
  polyreactivity (PSR sort gate): high polyreactivity

## QVQLVESGGGLVQAGGSLRLSCAASGRTFHYNAMGWYRQAPGKERELVAAITRSGGSTYYADSVKGRFTISRDNAKNTVYLQMNSLKPEDTAVYYCAAGWRSVSVRYYGPSDYWGQGTQVTVSS
  polyreactivity (PSR sort gate): low polyreactivity

## QVQLVESGGGLVQAGGSLRLSCAASGRIFFSYDMGWYTQAPGKERELVAAIDYIAGNTYYADSVKGRFTISRDNAKNTVYLQMNSLKPEDTAVYYCAADVLDWYDLLRDDYWGQGTQVTVSS
  polyreactivity (PSR sort gate): low polyreactivity

## QVQLVESGGGLVQAGGSLRLSCAASGRTFRFNAMGWYRPAPGKEREFVAAITSGGGTYYADSVKGRFTISRDNAKNTVYLQMNSLKPEDTAVYYCATVGIVHHRLVAMDYWGQGTQVTVSS
  polyreactivity (PSR sort gate): low polyreactivity

## QVQLLESGGGLVQPGGSLRLSCAASGSIFDGYAMVWYRQAPGKERELVAAISSSGGSTYYADSVKGRYTISRDTAKNTVYLQMNSLQREDSAVYYCAARFPWRGGVKYSYYFQHDYWGQGTQVTVSS
  polyreactivity (PSR sort gate): high polyreactivity

## QVQLVESGGVLVQAGCSLRLSCAASGSTFYYNAMGWYRQAPRKERELVARISRSGGSTYADSVKGRFTISRDNAKNTVYLQMNSLKPEDTAVYYCYADAYGTPEFTSYAVRYDYWGQGTQVTVSS
  polyreactivity (PSR sort gate): low polyreactivity

## QVQLVESGGGLVQAGGSLRLSCAASGRIFWSNAMGWYRQAPGKERELVAAITWRGGSTYADSVKGRFTISRDNAKNTVYLQMNSLKPEDTAVYYCAASPSGWRYDYWGQGTQVTVSS
  polyreactivity (PSR sort gate): high polyreactivity

## QVQLEESGGGLVQAGGSLRLSCAASGSTFSDNAMGWYRQAPGKERELVAAISTGTSTYADSVKGRFTISRDNAKNTVYLQMNSLKPEDTAVYYCAADVGIRPLNYHPYNYWGQGTQVTVSS
  polyreactivity (PSR sort gate): low polyreactivity

## QVQLVESGGGLDQAGASLRLSCAASGSIFVPYTMGWYRQAPGKERELVASISYSGGTTYYADSVKGRFTISRDNAKYTVYLQMNSLKPEDTAVYYCAADWDDSYSYRRYRHYDYWGQGTQVTVSS
  polyreactivity (PSR sort gate): low polyreactivity

## QVQLVESGGGLLQAGGSLRLSCAASGRIFRYYAMVWYIQAPVKERELVAGISWTGGTTYYADSVNGRFTISLDNAKNSVYLQMYSLKPEDSAVDYCIVRRSTLYDYWGQGTQVTVSS
  polyreactivity (PSR sort gate): high polyreactivity

## QVQLVESGGGLVQAGGSLRLSCAASGITFVRNTMGWYRQAPGKERELVAAISKSGDNTYYADSVKGRFTISRDNAKNTVYLQMNSLKPEDTAVYYCNKAYRKFYYGYDYWGQGTQVTVSS
  polyreactivity (PSR sort gate): high polyreactivity

## QVQLVESGGGLVQAGGSLRLSCAASGFIITGNAMGWYRKAPGKERELVAAITSGGNTYYADSVKGRFTISRDNAKNTVYLQMNSLKPEDTAVYYCAKYVPHWRILMEYWGQGTQVTVSS
  polyreactivity (PSR sort gate): low polyreactivity

## QVQLVESGGGLVQAGGSLRLSCAASGSIFSANVMGWYRQAPGTERELVAAIRRGGTTYYADSVKGRFTISRDNAKNTVYLQMNSLKPEDTAVYYCATDGIFGSYLRFEVAYDYWGQGTQVTVSS
  polyreactivity (PSR sort gate): low polyreactivity

## QVQLEESGGGLVQAGGSLRLSCAASGITIYYYAMGWYRQAPGKERELVAAISRSAGSTSYADSVKGRFTISRDNAKNTVYLQMNSLKTEDNAVYYCAAQGWHLDSQWQLYNYYYWGQGTQVTVSS
  polyreactivity (PSR sort gate): high polyreactivity

## QVQLVESGGGLVQAGGSHRLSCAASGRTFSPNAMGWYRQAPGKERELVAAISYRSYRTYYADSVKGRFTISRDKAKNTVYLQMNSLKPEDTAVYYCNADRTRGFQRYDYWGQGTQVTVSS
  polyreactivity (PSR sort gate): high polyreactivity

## QVQLVESGGGLVQEGGSLRLRCAASGGIFASNAMRWYRQAPGKERELLATITRGGSTNYADSVKGRFTISRDNAKNTVYLQMNSLKPEDTAVYYCAARFYSRAFWPAYYYWGQGTQVTVSS
  polyreactivity (PSR sort gate): high polyreactivity

## QVQLVESGGGLVQAGGSLRLSCAASGFTFRYYAMGWYRQAPGKERELVASITGGGRTYYADSVKGRFTISRDNAKNTVYLQMNSLKPEDTAVYYCATLLAYRLGSGYDSWGQGTQVTVSS
  polyreactivity (PSR sort gate): high polyreactivity

## QVQLVESGGGLVQAGGSLRLSCAASAMAWYRQAPWKERELVATISATGGSTYYADSVKGRFTISRDNAKNTVYLQMNSLKPEDTAVYYCNKDPLVFVYWGQGTQVTVSS
  polyreactivity (PSR sort gate): low polyreactivity

## QVQLVESGGGLVQAGGSLRLSCAASGRIFGYYTMGWYRQAPGKEWEVVAGISSGGSTNYADSVKGRFTISRDNAKNTVYLQMNSLKPEDTAVYDCAAAYPHFGGYRYDYWGQGTQVTVSS
  polyreactivity (PSR sort gate): high polyreactivity

## QVQLVDSGGGLVQAGGSLRLNFAASGLTFDRYGMGWYRQGPGKERELVAAIDGSGTSTYYADSVKGRFTISRDNAKNTVYLQMNSLKPEDTAVYYCAAGALSWYDYWGQGTQVTVSS
  polyreactivity (PSR sort gate): low polyreactivity

## QVQLVESGGGLVQAGGSLRLSCAASGRIFASYVMGWYSQAPGKERELVAAISRSGVSTYYADSVKGRFTISRDNEKNTVYLQINSLIPEDTAVYYCATTRFPRSFQEFGYWGQGTQVNVSS
  polyreactivity (PSR sort gate): high polyreactivity

## QVQLVESGGGILQAGGSLRLSCAASGLTFPWYAMGWYRLAPGKERELVAAITHSDGNTYADSVKGRFTISRDKAKNTVYLQMNSLKPEDTAVYYCATDTRSQAYYYWGQGTQVTVSS
  polyreactivity (PSR sort gate): low polyreactivity

## QVQLVESGGGVVQARGSLRLSCAASGRIFDNAMGWYRQAPGKERELVAAISGGSTYYADSVKGRFTISRDNAKNTVYLQMHSLKPEDTAVYYCNTDPLGRTVVYGGDDYWGQGTQVTVSS
  polyreactivity (PSR sort gate): low polyreactivity

## QVQLVESGGGLVQAGGSLRLSCAASGITFGDYTMGWYRQAPGKERELVAVISSGGNTNYADSVKGRFTISRDNAKNTVYLQMNSLKPEDTAVYYCAAVIASYGTRYRGGYTRYYYWGQGTQVTVSS
  polyreactivity (PSR sort gate): high polyreactivity

## QVQLVESGGGLVQAGGSLRLSCAASGSIFYIYVMGWYRQAPGKERELVAAISSGGTTNYADSVKGRFTISRDNAKNTVYLQMNSLIPEDTAVYYCAADVLIARYPGYSYEYWGQGTQVTVSS
  polyreactivity (PSR sort gate): low polyreactivity

## QVQLVESGGGLVQAGGSLRLSCAASGRILRYYAMGWYRQAPGKERELVASITSGGSTYYADSVKGRFTISRDNAKNTVYLQMNSLKQEDTAVYYCAADPVYLKKLLYYVGQAYYYWGQGTQVTVSS
  polyreactivity (PSR sort gate): high polyreactivity

## QVQLVESGGGLVQAGGSLRLSCAASGSIFARNAMGSYRQAPGKERELVAAITVRGRTNYADSVKGRFTISRDNAKNTVYLQMNSLKPDDTAVYYCAASLWDDDSRLMYYWGQGTQVTVSS
  polyreactivity (PSR sort gate): high polyreactivity

## QVQLVESGGGLVQAGGSLRLSCAASGRISYGYAMGWYRQAPGKERELVAAISRSGGTTYYADSVKGRFTISRDNAKNTVYLQMNSLKPEDTAVYYCNRVWYATDFVNTMGYWGQGTQVTVSS
  polyreactivity (PSR sort gate): low polyreactivity
